From patent publication US20030082638A1, “Methods for screening osteogenic compounds” (priority 2001, published 2003)

How the values were obtained:
IkBα = assay: Western blot of IkBα phosphorylation in murine osteoblasts; assay type: cell-based
Description: (§1) GST-RANKL-induced activation of MAP kinases is prolonged in murine osteoblasts. Primary osteoblasts were isolated from neonatal murine calvaria by sequential enzymatic digestion. Briefly, calvaria were minced and incubated at room temperature for 20 minutes with gentle shaking in an enzymatic solution containing 0.1% collagenase, 0.05% trypsin, and 4 mM NA2EDTA in calcium- and magnesium-free phosphate buffered saline (PBS). This procedure was repeated to yield a total of six digests. The cells isolated from the last four to six digests were cultured in MEM containing 15% FBS, 50 μM ascorbic acid, and 10 mM β-glycerophosphate. Cells were maintained at 37° C. in a humidified atmosphere containing 6% C02, with daily replenishment of media and cytokines.
(§2) Following treatment with GST-RANKL at the indicated times and dosages, cells were lysed in RIPA buffer containing 10 mM Tris-HCl pH 7.4, 150 mM NaCl, 1% Nonidet P-40, 0.2% sodium deoxycholate, and 1 mM EDTA, with 1 mM Na3PO4, 1 mM NaF, and 1×protease inhibitor cocktail added immediately prior to use. Protein concentration was quantitated and standardized by Micro BCA Protein Assay (Pierce). […] Levels of total and phosphorylated ERK, JNK, p38, Akt, and IkBα were determined using primary and secondary antibodies according to the manufacturer's established protocols, with conventional chemiluminiscent detection. […]

ERK [1] = assay: Western blot of ERK phosphorylation in murine osteoblasts; assay type: cell-based
Description: as §1
(§3) Following treatment with GST-RANKL at the indicated times and dosages, cells were lysed in RIPA buffer containing 10 mM Tris-HCl pH 7.4, 150 mM NaCl, 1% Nonidet P-40, 0.2% sodium deoxycholate, and 1 mM EDTA, with 1 mM Na3PO4, 1 mM NaF, and 1×protease inhibitor cocktail added immediately prior to use. Protein concentration was quantitated and standardized by Micro BCA Protein Assay (Pierce). Lysates were denatured by heat in Laemmli buffer, resolved by SDS-PAGE, and transferred onto nitrocellulose. Levels of total and phosphorylated ERK, JNK, p38, Akt, and IkBα were determined using primary and secondary antibodies according to the manufacturer's established protocols, with conventional chemiluminiscent detection. Membranes were stripped between hybridizations in PBS containing […] β-mercaptoethanol and 2% SDS.

Akt [2] = assay: Western blot of Akt phosphorylation in murine osteoblasts; assay type: cell-based
Description: as §1, §2

Akt [3] = assay: Western blot of Akt phosphorylation in murine osteoclast precursors; assay type: cell-based
Description: (§4) GST-RANKL rapidly activates MAP kinases in murine osteoclast precursors. Wild type C57BL/6 mice were purchased from Harlan Industries (Indianapolis, Ind.). For the isolation of osteoclast precursors, bone marrow macrophages (BMMs) were isolated from whole bone marrow of four to six week old mice and incubated in tissue culture dishes at 37° C. in 5% CO2. After 24 hours in culture, the non-adherent cells were collected and layered on a Ficoll Hypaque gradient and the cells at the gradient interface were collected. Cells were replated at 65,000/cm^2 in α-minimal essential medium, supplemented with 10% heat inactivated fetal bovine serum, at 37° C. in 5% CO2 in the presence of recombinant mouse M-CSF (10 ng.ml). Cells were treated with GST-RANKL on day 4 or 5. In the experiments addressing the activation of Akt, the cells were cultured in serum and M-CSF free medium for 24 hours prior to GST-RANKL stimulation.
(§5) Immunoblotting (Western blotting) of osteoclast precursors was performed according to the following instructions. Cytokine-treated or control monolayers of BMMs were washed twice with ice-cold PBS. Cells were lysed in the buffer containing 20 mM Tris (pH 7.5),150 mM NaCl, 1 mM EDTA, 1 mM EGTA, 1% Triton X-100, 2.5 mM sodium pyrophoshate, 1 mM β-glycerophosphate, 1 mM Na3PO4, 1 mM NaF, and 1×protease inhibitor cocktail. […]

[4] = tested on: Primary calvarial osteoblasts; assay: Alkaline phosphatase (AP) activity in osteoblasts following GST-RANKL exposure; assay type: cell-based; conditions: 50 ng/ml
Description: AP activity following RANKL exposure in osteoblasts. Primary calvarial osteoblasts were cultured in MEM containing 15% FBS, 50 μM ascorbic acid, and 10 mM β-glycerophosphate. Cells were maintained at 37° C., with daily replenishment of media and cytokines. Osteoblast alkaline phosphatase (AP) activity, a direct measure of osteoblast differentiation and function, was quantitated by addition of a calorimetric substrate, 5.5 mM p-nitrophenyl phosphate. The cells were then exposed to GST-RANKL, administered in different regimens. Pulsatile exposure to 50 ng/ml GST-RANKL was provided as 1, 3, 6, 8, or 24 hours of total exposure per 48-hour treatment window. After 4 such 48-hour treatments, AP activity was quantitated (±S.D.) and normalized to total protein levels.

ERK [5] = assay: Western blot of ERK phosphorylation in murine osteoclast precursors; assay type: cell-based
Description: as §4
(§6) Immunoblotting (Western blotting) of osteoclast precursors was performed according to the following instructions. Cytokine-treated or control monolayers of BMMs were washed twice with ice-cold PBS. Cells were lysed in the buffer containing 20 mM Tris (pH 7.5),150 mM NaCl, 1 mM EDTA, 1 mM EGTA, 1% Triton X-100, 2.5 mM sodium pyrophoshate, 1 mM β-glycerophosphate, 1 mM Na3PO4, 1 mM NaF, and 1×protease inhibitor cocktail. Fifty μg of cell lysates were boiled in the presence of SDS sample buffer (0.5 M Tris-HCl, pH 6.8, 10% w/v SDS, 10% glycerol, 0.05% w/v bromphenol blue) for 5 minutes and separated on SDS-PAGE, using 8% gels. Proteins were transferred to nitrocellulose membranes using a semi-dry blotter (Bio-Rad, Richmond, Calif.) and incubated in blocking solution (5% non-fat dry milk in tris-buffered saline containing 0.1% Tween 20) for 1 hour to reduce nonspecific binding. Membranes were then exposed to primary antibodies overnight at 4° C., washed three times, and incubated with secondary goat anti-mouse or rabbit IgG horseradish peroxidase-conjugated antibody for 1 hour. […]

Mice, C3H/HeN = assay: In vivo stimulation of bone formation in mice, subcutaneous administration; design: species or system mouse; conditions: 100 micrograms subcutaneously once a day for nine days, vs GST control
Description: In vivo stimulation of bone formation in mice. Mice, C3H/HeN (Harlan, Indianapolis, Ind.) were administered 100 micrograms GST (control) or 100 micrograms GST-RANKL as obtained in Example 1, subcutaneously, once a day for nine days. […] Upper panels illustrate metaphyseal bone, which is shown at higher magnification in lower panels. […] Dual-energy X-ray absorptiometry (DEXA) analysis of GST or GST-RANKL administered mice was also conducted using standard procedures.

JNK [6] = assay: Western blot of JNK phosphorylation in murine osteoclast precursors; assay type: cell-based; conditions: after GST-RANKL stimulation
Description: as §4, §5

Mice = assay: In vivo stimulation of bone formation in mice, intramedullary femur injection, DEXA; design: species or system mouse; conditions: 100 micrograms intramedullary once a day for nine days; versus GST control; day 9
Description: In vivo stimulation of bone formation in mice results in 24% increase. Mice were anesthetized with a Ketamine/Xylazine cocktail (10 mg/kg ketamine and 10 mg/kg xylazine IP) and placed in left lateral recumbancy. The major trochanter and lateral femoral condyle of the right femur were identified and the intramedullary injection site was equidistant between these landmarks. Injections of 100 micrograms GST (control) or 100 micrograms GST-RANKL were made once a day for nine days with 29 gauge needles on tuberculin syringes.
On day 9 the mice were re-anesthetized with Ketamine/Xylazine cocktail (10 mg/kg ketamine and 10 mg/kg xylazine IP) and dual energy x-ray absorptiometry (DEXA, Piximus) analysis was done on each animal. Plain radiographs were taken immediately following DEXA analysis (Faxitron, KV 0.15, time=20 sec). Animals were sacrificed by CO2 asphyxiation and both femurs harvested for histological analysis. The femurs were fixed in 10% buffered formalin for 48 hours and decalcified for 1 week. The results, showing a 24% increase in bone density of the femur of GST-RANKL treated mice versus the control, are shown in FIG. 10.

c-Fos = assay: Western blot of c-Fos activation following GST-RANKL treatment of cells; assay type: cell-based; conditions: osteoblasts and osteoblast precursor cells; FIG. 9, 0-120 minutes
Description: Time points at which activation was measured were 0, 30, 60 and 120 minutes following exposure of cells to GST-RANKL. B-actin was used as a control.

p38 [7] = assay: Western blot of p38 phosphorylation in murine osteoblasts; assay type: cell-based
Description: as §1, §2

p38 [8] = assay: Western blot of p38 phosphorylation in murine osteoclast precursors; assay type: cell-based
Description: as §4, §6

JNK [9] = assay: Western blot of JNK phosphorylation in murine osteoblasts; assay type: cell-based
Description: as §1, §2

[10] = tested on: Neo-natal mouse calvariae; assay: Ex vivo stimulation of bone formation in whole calvarial organ culture; assay type: cell-based
Description: One commonly used assay is a neonatal mouse calvaria assay. Briefly, four days after birth, the front and parietal bones of ICR Swiss white mouse pups are removed by microdissection and split along the sagittal suture. The bones are then incubated in a specified medium, wherein the medium contains either test or control compounds. Following the incubation, the bones are removed from the media, and fixed in 10% buffered formalin for 24-48 hours, decalcified in 14% EDTA for 1 week, processed through graded alcohols, and embedded in paraffin wax. Three micron sections of the calvaria are prepared and assessed using histomorphometric analysis of bone formation or bone resorption. Bone changes are measured on sections cut 200 microns apart. […]
Ex vivo stimulation of bone formation in whole calvarial organ culture. […] Purified GST-RANKL was then assayed for endotoxin contamination by limulus amoebocyte lysate assay, and quantitated for bioactivity by an in vitro osteoclastogenesis readout.
Test compositions were administered for-a period of 12 hours only at the initiation of the culture (1×) or once at initiation and once three days later, again for a duration of 12 hours (2×). After seven days, calvarial thickness was determined histomorphometrically and compared among the various control and experimental groups to assess bone formation. […]

ERK1/2 = assay: Western blot of ERK1/2 activation in murine osteoblast precursors; assay type: cell-based
Description: as §1, §3
GST-RANKL-induced ERk1/2 activation is prolonged in murine osteoblast precursors. Osteoblast precursors were isolated and maintained according to the procedures set forth in Example 5. The immunoblotting was performed in the same manner as immunoblotting in Example 3.

[11] = after RANK/GST-RANKL interaction

exposure window giving the maximum anabolic effect (AP activity) ([4]; 1, 3, 6, 8 or 24 hours exposure per 48-hour window, 4 treatments): 8 h | AP activity ([4]; administered in an intermittent fashion): increase
B1: GST-RANKL: fusion protein of glutathione S-transferase (GST) and murine RANKL residues 158-316, expressed in Escherichia coli, affinity purified (protein)
chain: KPEAQPFAHLTINAASIPSGSHKVTLSSWYHDRGWAKISNMTLSNGKLRVNQDGFYYLYANICFRHHETSGSVPTDYLQLMVYVVKTSIKIPSSHNLMKGGSTKNWSGNSEFHFYSINVGGFFKLRAGEEISIQVSNPSLLDPDQDATYFGAFKVQDID
modifications: left off: a dimerising Fc or GST
time until which IkBα phosphorylation increased (end of the assay) (IkBα): 60 min | time at which IkBα phosphorylation was detected (IkBα; after stimulation): 10 min | time at which ERK activation could still be detected (ERK [1]; after GST-RANKL stimulation): 60 min | time by which both ERKs were activated (ERK [1]; after GST-RANKL stimulation): ≤ 5 min | time of peak ERK activation (ERK [1]; [11]): 10 min | Akt activation at the time of GST-RANKL stimulation (Akt [2]): detectable | duration for which Akt activation could be detected (Akt [2]; after stimulation): at least 60 minutes | Akt phosphorylation at the time of GST-RANKL stimulation (Akt [3]; 0 minutes): detectable phosphorylation | time of peak Akt activation (Akt [3]; after GST-RANKL stimulation): 15 min | time at which ERK phosphorylation was detected (ERK [5]; after GST-RANKL stimulation): 5 min | time of peak ERK phosphorylation (ERK [5]; [11]): 10 min | time at which ERK phosphorylation was undetectable (ERK [5]; after the interaction): 30 min | bone mineral density (DEXA) (Mice, C3H/HeN; tibial metaphyses): significant increase | bone mass (histological examination of tibia) (Mice, C3H/HeN): marked increase | cortical thickness (Mice, C3H/HeN): massive increase | numbers of activated osteoblasts (histological examination of tibia) (Mice, C3H/HeN): net increase | time at which JNK was phosphorylated (JNK [6]): 15 min | time by which phosphorylated JNK was undetectable (JNK [6]): ≤ 30 min | increase in bone density of the femur (DEXA) (Mice): 24% | activation of c-Fos (c-Fos): prolonged activation | p38 activation at the time of GST-RANKL stimulation (p38 [7]): detectable | duration for which p38 activation could be detected (p38 [7]; after stimulation): at least 60 minutes | time at which p38 phosphorylation was detected (p38 [8]; after GST-RANKL stimulation): 5 min | time of peak p38 phosphorylation (p38 [8]; [11]): 10 min | time at which p38 phosphorylation was undetectable (p38 [8]; after the interaction): 30 min | JNK activation at the time of GST-RANKL stimulation (JNK [9]): detectable | duration for which JNK activation could be detected (JNK [9]; after stimulation): at least 60 minutes | calvarial thickness at the highest dose tested ([10]; 100 ng/ml, after seven days): doubled | calvarial thickness ([10]; administered 1× or 2× for 12 hours, histomorphometry after seven days): dose-dependent increase | time of peak kinase activation as stated in the description (ERK1/2; osteoblast precursor cells, GST-RANKL stimulation): 5 to 10 min | time up to which ERK activation increased (length of the assay) (ERK1/2; osteoblast precursors): 60 min | time at which ERK activation was first detected (ERK1/2; osteoblast precursors, after GST-RANKL stimulation): 10 min
